Data on four molecules can be found in paper PMC7591920 (2020).

One test addresses T1, GST-hTEAD1(209–426) (human, UniProt P28347 209-426).
T1 chain: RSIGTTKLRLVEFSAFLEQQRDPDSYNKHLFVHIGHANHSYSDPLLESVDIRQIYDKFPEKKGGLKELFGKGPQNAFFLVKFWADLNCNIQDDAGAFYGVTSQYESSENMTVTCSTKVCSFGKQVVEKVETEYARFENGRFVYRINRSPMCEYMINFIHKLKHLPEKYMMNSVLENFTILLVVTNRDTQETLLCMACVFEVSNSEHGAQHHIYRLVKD
Description: SPR. (In general: SPR reads the build-up and loss of mass on a sensor chip optically.)

Test [1] has as its target T2, mouse TEAD4(210–427), as purified (SPR) (mouse, UniProt Q62296 210-427).
T2 chain: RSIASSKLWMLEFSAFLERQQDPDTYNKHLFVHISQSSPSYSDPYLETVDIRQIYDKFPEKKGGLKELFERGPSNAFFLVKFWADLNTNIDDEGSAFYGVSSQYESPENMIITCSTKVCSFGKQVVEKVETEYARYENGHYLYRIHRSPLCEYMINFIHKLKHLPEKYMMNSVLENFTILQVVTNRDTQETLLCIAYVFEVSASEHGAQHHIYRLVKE
The experiment in a line: SPR.

Bridge positions count the residues as written; N and C are the ends. Ends that are not written are not given here.

B1: macrocyclic two-helix motif peptide 4A (lactam 235–250, 5 crosslinking atoms) (peptide)
chain: SVDDHFAKALGDTWLQIKAA
modifications: lactam (positions not given here); not fully specified (bridges); also: lactam crosslink of 5 atoms, residue identities at the bridge ends not given here
By Kd is commonly meant the equilibrium constant for the complex coming apart. A low value points to tighter binding. For B1, the results for the Kd (with GST-hTEAD1(209–426); in test [1]) were 15 µM and 11 µM, respectively.

B2: macrocyclic two-helix motif peptide 4B (lactam 235–250, 6 crosslinking atoms) (peptide)
chain: SVDDHFAKALGDTWLQIKAA
modifications: lactam (positions not given here); not fully specified (bridges); also: lactam crosslink of 6 atoms, residue identities at the bridge ends not given here
Turning to B2, the Kd came out at 14 µM with GST-hTEAD1(209–426) and 11 µM in test [1].
In the same order, the values of SVDDHFAKALGDTWLQIKAA (lactam 3-18) [macrocyclic two-helix motif peptide 4C (lactam 235–250, seven-atom crosslink)] are 4.8 µM and 3.2 µM.
The corresponding values for SVEDHFAKALGDTWLQIKAA (lactam (positions not given here); not fully specified (bridges)) [macrocyclic two-helix motif peptide 4D (lactam 235–250, seven-atom crosslink)] are 1.5 µM and 1 µM.
